Blank lines part the entries; values can stand above or below the binder they belong to.
Key:
[1] = target: T1, human BCMA (human, UniProt Q02223 1-184); experiment: FACS on NCI-H929 cells
T1 construct: whole, on cells; also called hBCMA; TNFRSF17
T1 sequence (looked up): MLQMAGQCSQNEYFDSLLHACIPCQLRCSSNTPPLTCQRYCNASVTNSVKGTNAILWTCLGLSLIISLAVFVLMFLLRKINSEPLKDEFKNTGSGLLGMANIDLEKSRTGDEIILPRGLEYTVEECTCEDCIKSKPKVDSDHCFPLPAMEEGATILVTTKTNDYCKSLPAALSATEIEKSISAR

[2] = target: T2, human PD-L1 on cells (CHO-K1/hPDL1; MDA-MB-231) (human, UniProt Q9NZQ7 19-290); experiment: FACS, CHO-K1/hPDL1 cells (Experiment 2)
T2 construct: whole, on cells
T2 sequence (Q9NZQ7 19-290): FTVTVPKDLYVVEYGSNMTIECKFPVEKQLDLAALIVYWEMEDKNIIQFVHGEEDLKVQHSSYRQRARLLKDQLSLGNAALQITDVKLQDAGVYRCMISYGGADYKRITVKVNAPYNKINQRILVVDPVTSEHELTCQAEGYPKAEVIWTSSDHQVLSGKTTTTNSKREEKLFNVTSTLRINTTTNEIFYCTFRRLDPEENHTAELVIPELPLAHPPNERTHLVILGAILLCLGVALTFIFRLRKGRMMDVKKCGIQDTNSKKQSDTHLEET

[3] = target: T2, human PD-L1 on cells (CHO-K1/hPDL1; …); experiment: competition FACS: biotinylated PD-1 to CHO-K1/hPDL1 cells (Experiment 2)
[4] = target: T3, human CTLA4 on cells (CHO-K1/hCTLA4; HEK293/hCTLA4; 293F-hCTLA4) (human, UniProt P16410 36-223); experiment: competition FACS: biotinylated B7-1-Fc to CHO-K1/hCTLA4 cells (Test 2)
T3 construct: whole, on cells
T3 sequence (P16410 36-223): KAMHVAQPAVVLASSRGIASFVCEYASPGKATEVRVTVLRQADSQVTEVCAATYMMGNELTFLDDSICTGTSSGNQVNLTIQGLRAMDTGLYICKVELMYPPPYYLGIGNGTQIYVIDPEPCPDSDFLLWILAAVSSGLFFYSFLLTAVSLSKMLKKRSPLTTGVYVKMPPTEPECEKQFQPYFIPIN

[5] = target: T3, human CTLA4 on cells (CHO-K1/hCTLA4; …); experiment: FACS, CHO-K1/hCTLA4 cells (Test 2)

EC50 [1]: 9 nM
Maximum MFI [1]: 84500
B1: PR002332 (bispecific antibody, human IgG1, lambda, L234A L235A)
light: QAVVTQEPSLTVSPGGTVTLTCRSSTGAVTTSNYANWVQQKPGQAPRGLIGGTNKRAPWTPARFSGSLLGDKAALTLLGAQPEDEAEYFCALWYSNLWVFGGGTKLTVLGQPKAAPSVTLFPPSSEELQANKATLVCLISDFYPGAVTVAWKADSSPVKAGVETTTPSKQSNNKYAASSYLSLTPEQWKSHRSYSCQVTHEGSTVEKTVAPTECS
heavy: EVQLLESGGGLVQPGGSLRLSCAASGFTFSTYAMNWVRQAPGKGLEWVSRIRSKYNNYATYYADSVKDRFTISRDDSKSTLYLQMNSLRAEDTAVYYCVRHGNFGNSYVSWFAYWGQGTLVTVSSASTKGPSVFPLAPSSKSTSGGTAALGCLVKDYFPEPVTVSWNSGALTSGVHTFPAVLQSSGLYSLSSVVTVPSSSLGTQTYICNVNHKPSNTKVDKKVEPKSCDKTHTCPPCPAPEAAGGPSVFLFPPKPKDTLMISRTPEVTCVVVDVSHEDPEVKFNWYVDGVEVHNAKTKPREEQYNSTYRVVSVLTVLHQDWLNGKEYKCKVSNKALGAPIEKTISKAKGQPREPQVYTLPPCREEMTKNQVSLWCLVKGFYPSDIAVEWESNGQPENNYKTTPPVLDSDGSFFLYSKLTVDKSRWQQGNVFSCSVMHEALHNHYTQKSLSLSPGK
chain: EVQLVETGGGLIQPGGSLRLSCAASGFTVSDNYMTWVRQAPGKGLEWVSVIFSGGNTYYADSVKGRFTISRDNAKNTLYLQMNSLRAEDTALYYCARRNYDDTRGTDVFDIWGQGTMVTVSSRTGGGGSGGGGSGGGGSKLEVQLVETGGGLIQPGGSLRLSCAASGFTVSSNYMTWVRQAPGKGLEWVSVIFSGGSTYYADSVKGRFTISRDNSKNTLYLQMNSLRAEDTAVYYCARRIAVAGHDVFDIWGQGTMVTVSSASEPKSSDKTHTCPPCPAPEAAGGPSVFLFPPKPKDTLMISRTPEVTCVVVDVSHEDPEVKFNWYVDGVEVHNAKTKPREEQYNSTYRVVSVLTVLHQDWLNGKEYKCKVSNKALGAPIEKTISKAKGQPREPQVCTLPPSREEMTKNQVSLSCAVKGFYPSDIAVEWESNGQPENNYKTTPPVLDSDGSFFLVSKLTVDKSRWQQGNVFSCSVMHEALHNHYTQKSLSLSPGK
notes: BCMAxCD3, Fab-Fc-VH'-VH'' (structure 15); IgG1 knob/hole, AAG

EC50 [1]: 28.9 nM
B2: PR000274 (antibody, human IgG1, kappa, V domains shown)
VH: QVQLVQSGAEVKKPGSSVKVSCKASGGTFSNYWMHWVRQAPGQGLEWMGATYRGHSDTYYNQKFKGRVTITADKSTSTAYMELSSLRSEDTAVYYCARGAIYDGYDVLDNWGQGTLVTVSS
VL: DIQMTQSPSSLSASVGDRVTITCSASQDISNYLNWYQQKPGKAPKLLIYYTSNLHSGVPSRFSGSGSGTDFTLTISSLQPEDFATYYCQQYRKLPWTFGQGTKLEIKR
notes: also called Positive control 1; CA8-J6M0

EC50 [2]: 1.94 nM
Maximum MFI [2]: 5660 MFI
IC50 [3]: 1.69 nM
Maximum inhibition rate (%) [3]: 81.4%
IC50 [4]: 2.97 nM
Maximum inhibition rate (%) [4]: 100%
EC50 [5]: 4.65 nM
Maximum MFI [5]: 401 MFI
B3: PR001578 (bispecific antibody, human IgG1, kappa)
chain 1: EVQLVESGGGLIQPGGSLRLSCAVSGFTVSKNYMSWVRQAPGKGLEWVSVVYSGGSKTYADSVKGRFTISRDNSKNTLYLQMNSLRAEDTAVYYCARAVPHSPSSFDIWGQGTMVTVSSKLEPKSSDKTHTPPPPPRTDIQMTQSPSTLSASVGDRVTVTCRASQSIYIWLAWYQQKPGKAPNLLIYKASSLETGVPSRFSGSGSGTEFTLTISSLQPDDFATYYCQQYYGSSRTFGQGTKVEIKRTVAAPSVFIFPPSDEQLKSGTASVVCLLNNFYPREAKVQWKVDNALQSGNSQESVTEQDSKDSTYSLSSTLTLSKADYEKHKVYACEVTHQGLSSPVTKSFNRGEC
chain 2: not shown
notes: PD-L1×CTLA4, structure 9, Fc S239D, I332E

EC50 [2]: 0.83 nM
Maximum MFI [2]: 8310 MFI
IC50 [3]: 0.5 nM
Maximum inhibition rate (%) [3]: 82.3%
IC50 [4]: 6.22 nM
Maximum inhibition rate (%) [4]: 99.2%
EC50 [5]: 9.9 nM
Maximum MFI [5]: 781 MFI
B4: PR001573 (bispecific antibody, human IgG1, kappa)
light: DIQMTQSPSTLSASVGDRVTVTCRASQSIYIWLAWYQQKPGKAPNLLIYKASSLETGVPSRFSGSGSGTEFTLTISSLQPDDFATYYCQQYYGSSRTFGQGTKVEIKRTVAAPSVFIFPPSDEQLKSGTASVVCLLNNFYPREAKVQWKVDNALQSGNSQESVTEQDSKDSTYSLSSTLTLSKADYEKHKVYACEVTHQGLSSPVTKSFNRGEC
chain: not shown
notes: PD-L1×CTLA4, structure 3

EC50 [2]: 0.5 nM
Maximum MFI [2]: 8380 MFI
IC50 [3]: 0.27 nM
Maximum inhibition rate (%) [3]: 79.8%
B5: PR000416, anti-PD-L1 91G3H5H3(D54E), hIgG1 (antibody)
heavy: not shown
light: B4 light

Reference: patent US20230322953A1 (HARBOUR BIOMED SHANGHAI, published 2023)
